Series [1] concerns the target T1, cdMMP-12 wt (Homo sapiens, UniProt P39900).
T1 construct: hexahistidine (C); made in house; host or cells: E. coli BL21 (pET32b, cytoplasmic)
Nature of the series: FRET peptide inhibition assay, cdMMP-12 wt. The class given is biochemical. The conditions noted are these: toward cdMMP-12 wild type; listed as LH6. As for the experimental part:
(§1) FRET peptide inhibition assays In 96-well assay plates (Corning), 60/250/350/10/10/30 nM of (cd)MMP-1/-7/-9/-12 D4/-12 wt/-14 were preincubated with 1 nM-1 μM purified Fabs for 30 min at room temperature then 1 μM substrate M-2350 (Bachem) was added. Generated fluorescent signals (λEx=328 nm, λEm=393 nm) were monitored at 37° C. to measure the initial velocities. To calculate inhibition constants (KIs), data were fit with the equations for slow tight-binding inhibitors. The inhibition type of the Fabs was determined using the initial velocities of cdMMP-12 D4 as a function of substrate concentration (250-2000 nM) at various Fab concentrations (31-500 nM). The values of Vmax and Km were derived from linearization in accordance with the Lineweaver-Burk equation.

The target of a further series is T2, MMP-7 (Homo sapiens, UniProt P09237).
T2 construct: purchased AnaSpec
T2 sequence (P09237 95-267): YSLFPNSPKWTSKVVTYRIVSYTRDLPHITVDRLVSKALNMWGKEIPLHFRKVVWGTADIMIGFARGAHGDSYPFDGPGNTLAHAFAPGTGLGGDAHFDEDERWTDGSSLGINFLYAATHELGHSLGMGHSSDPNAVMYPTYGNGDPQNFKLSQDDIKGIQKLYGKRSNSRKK
Nature of the series: FRET peptide inhibition assay, MMP-7. The class given is biochemical. The conditions noted are these: listed as LH6. As for the experimental part: as §1

Series [2] relates to cdMMP-9. Nature of the series: FRET peptide inhibition assay, cdMMP-9 (Example 2). The class given is biochemical. As for the experimental part: as §1
Series [3] deals with T3, cdMMP-12 mutant D4 (Homo sapiens, UniProt P39900, A167E/A173P/A252Q/H206S/I245T/K233R/M156E/N119Q/N126H/R135E/T215V/V161I/Y113D/Y132K).
T3 construct: hexahistidine (C); made in house; host or cells: E. coli BL21, pET32b (cytoplasmic, soluble fraction)
As to the kind of experiment: Proteolytic stability of Fabs with cdMMP-12 D4. The class given is physicochemical. To be noted: 2 μM Fab, 2 μM cdMMP-12 D4, 4 h, 37° C. As for the experimental part: (§2) Proteolytic stability tests 2 μM purified Fabs were incubated with 2 μM cdMMP-12 wt/D4 in 50 mM HEPES, 150 mM NaCl pH 7.5 at 37° C. for 4 h. Samples were analyzed by using 12% non-reducing SDS-PAGE and stained with Coomassie blue. Densitometric interpretation was conducted using a ChemiDoc imager (Bio-Rad).

In series [4] the target is T1, cdMMP-12 wt. Nature of the series: Fibronectin proteolysis inhibition, cdMMP-12 wt (western blot). Format: biochemical.
Series [5] has as its target T3, cdMMP-12 mutant D4. Nature of the series: FRET peptide inhibition assay, cdMMP-12 D4. The class given is biochemical. The conditions noted are these: cdMMP-12 D4, FRET peptide, 31-500 nM Fab. As for the experimental part:
as §1

Series [6] has as its target cdMMP-9. Nature of the series: Bio-layer interferometry on cdMMP-9. The class given is binding. Background: Biolayer interferometry detects binding as a change in optical thickness at a sensor tip.
For series [7], the target named is T1, cdMMP-12 wt. Nature of the series: Proteolytic stability of Fabs with cdMMP-12 wt. To be noted: 2 μM Fab, 2 μM cdMMP-12 wt, 4 h, 37° C. Format: physicochemical. As for the experimental part: as §2
Series [8] deals with T4, cdMMP-14 (Homo sapiens, UniProt P50281). Nature of the series: Bio-layer interferometry on cdMMP-14. Format: binding. Also on record: human MMP-14 (residue 114-320); hexahistidine (C); made in house; host or cells: E. coli periplasm.
Series [9] addresses T4, cdMMP-14. As to the kind of experiment: FRET peptide inhibition assay, cdMMP-14 (Example 2). The class given is biochemical. Also on record: human MMP-14 (residue 114-320); hexahistidine (C); made in house; host or cells: E. coli periplasm. The procedure: as §1
The target of another series is T5, MMP-1 (Homo sapiens, UniProt P03956).
T5 construct: purchased AnaSpec
T5 sequence (P03956 100-469): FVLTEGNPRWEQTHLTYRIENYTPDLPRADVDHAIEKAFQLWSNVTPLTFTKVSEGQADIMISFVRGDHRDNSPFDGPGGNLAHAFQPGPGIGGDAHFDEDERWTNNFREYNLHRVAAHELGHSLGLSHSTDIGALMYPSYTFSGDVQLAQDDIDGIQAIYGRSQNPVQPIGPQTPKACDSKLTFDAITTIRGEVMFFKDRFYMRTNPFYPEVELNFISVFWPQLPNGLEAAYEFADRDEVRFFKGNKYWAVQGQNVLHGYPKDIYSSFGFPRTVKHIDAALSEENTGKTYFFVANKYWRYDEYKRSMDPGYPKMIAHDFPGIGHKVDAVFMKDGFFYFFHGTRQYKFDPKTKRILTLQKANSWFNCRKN
Nature of the series: FRET peptide inhibition assay, MMP-1. The conditions noted are these: listed as LH6. The class given is biochemical. The procedure:
as §1

One may read the Kd as the equilibrium constant for the complex coming apart.

T1 sequence (P39900 106-263): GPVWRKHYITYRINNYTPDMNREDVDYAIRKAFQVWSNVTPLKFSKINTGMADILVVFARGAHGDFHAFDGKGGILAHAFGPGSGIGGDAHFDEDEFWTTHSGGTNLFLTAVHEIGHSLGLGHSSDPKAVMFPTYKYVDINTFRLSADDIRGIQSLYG
Sequence of cdMMP-9 (P14780 with tags, fused parts or gaps DEL216-390 limits assumed): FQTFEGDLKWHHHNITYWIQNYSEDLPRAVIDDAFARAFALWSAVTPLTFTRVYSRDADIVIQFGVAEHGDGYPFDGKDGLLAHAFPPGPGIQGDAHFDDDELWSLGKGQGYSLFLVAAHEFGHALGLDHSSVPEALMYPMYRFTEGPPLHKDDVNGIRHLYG
T3 sequence (P39900 106-263 Y113D/N119Q/N126H/Y132K/R135E/M156E/V161I/A167E/A173P/H206S/T215V/K233R/I245T/A252Q): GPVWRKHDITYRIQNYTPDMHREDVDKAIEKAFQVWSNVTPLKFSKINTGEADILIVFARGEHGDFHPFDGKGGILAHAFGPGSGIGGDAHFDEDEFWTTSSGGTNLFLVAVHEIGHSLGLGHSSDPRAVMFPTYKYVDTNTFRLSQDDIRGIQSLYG

B1: Fab LH6: anti-MMP-12 antibody clone; VL SEQ ID NO:118, VH SEQ ID NO:120, CDR-H3 SEQ ID NO:123 (antibody, V domains shown)
VH: EVQLVESGGGLVQPGGSLRLSCAASGFNLSYSYMHWVRQAPGKGLEWVASIYPSYGSTYYADSVKGRFTISADTSKNTAYLQMNSLRAEDTAVYYCARDLEESLPKRARTAVSKELESVPYVMDYWGQGTLVTVSSAS
VL: DIQMTQSPSSLSASVGDRVTITCRASQSVSSAVAWYQQKPGKAPKLLIYSASSLYSGVPSRFSGSRSGTDFTLTISSLQPEDFATYYCQQSSHYASPPITFGQGTKVEIKR
Take B1: the “Inhibition FRET peptide” value with cdMMP-12 wt [1] is recorded as “non-”. Further, in the series with MMP-7, the “Inhibition of MMP-7 (selectivity)” value is “did not inhibit and non-”. Also, in the series with cdMMP-9 [2], the “K1 fold, cdMMP-9 compared with cdMMP-12 mutant D4” value is “(16-fold)”. For the same molecule, at cdMMP-9 [2] (FRET peptide, read-out: K1 toward cdMMP-9), the Ki came to 1500 nM. Moreover, the “Degradation of Fab by cdMMP-12 D4” value in the series with cdMMP-12 mutant D4 [3] is recorded as “no significant degradation”. Moreover, in the series with cdMMP-12 wt [4] (6 μM Fab, 350 nM wt cdMMP-12, 200 nM fibronectin, 37° C.), the “Fibronectin remaining after cdMMP-12 wt hydrolysis” value is listed as “significant amounts of fibronectin remained”. In the series with cdMMP-12 wt [4] (toward cdMMP-12 wild type, 200 nM enzyme, 200 nM fibronectin), the “Inhibition Fibronectin IC50” value was “Inhib”. For the same molecule, the “Type of inhibition (Lineweaver-Burk)” value with cdMMP-12 mutant D4 [5] is reported as “substrate competitive manner”. Also, the “KD fold, cdMMP-9 compared with cdMMP-12 wt” value at cdMMP-9 [6] is listed as “(2.2-fold),”. Also, the Kd on cdMMP-9 [6] (read-out: KD toward cdMMP-9) was found to be 950 nM. For the same molecule, the “Fab remained intact after exposure to cdMMP-12 wt” value with cdMMP-12 wt [7] is 56%. The “KD fold, cdMMP-14 compared with cdMMP-12 wt” value in the series with cdMMP-14 [8] is reported as “(1.1-fold),”. Moreover, the “K1 fold, cdMMP-14 compared with cdMMP-12 mutant D4” value with cdMMP-14 [9] is on record as “(52-fold)”. In addition, in the series with MMP-1, the “Inhibition of MMP-1 (selectivity)” value is “did not inhibit and non-”.

Values taken from patent US11332546B2, “Protease inhibitory antibodies and methods of use thereof” (The Regents of The University of California, priority 2019, dated 2022).
